These results are taken from the RNAGym collection of RNA variant scans (doi:10.1073/pnas.2313332121).

B1: TPR t1 (parent)
chain: GACCAAUCUGCCCUCAGAGCUCGAGAACAUCUUCGGAUGCAGAGGAGGCAGGCUUCGGUGGCGCGAUAGCGCCAACGUCCUCAACCUCCAAUGCAUCCCACCACAUGAUGAUGCCUGAAGAGCCUUGGUUUUUUG

In this data set the parent is B1. The experiment in a line: polymerase ribozyme fitness, log enrichment relative to wild type (log ratio); higher = more active; in vitro selection for triplet polymerase activity. Put shortly: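 Mutant libraries of both subunits of a heterodimeric triplet polymerase ribozyme were PCR-built, transcribed, and selected once in triplicate, with frozen incubation at −7 °C and capture of gel-excised extended constructs on streptavidin beads before RT-PCR. Illumina sequencing of input and output libraries was filtered to genotypes with ≥10 input reads and ≥1 read per output. Fitness is the logarithm of genotype enrichment over wild-type enrichment, using inverse-variance-weighted replicate averages. The logarithm is base 2.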
As for C34A U133A, the “polymerase ribozyme fitness (log ratio)” value was -2.19. Then C15U C98U, with -2.28. A24G C40U C62G: the “polymerase ribozyme fitness (log ratio)” value was -3.54. The result for A16U C34A U109G C123A U129G reads -5.83; that for C70U C85G U87A A111G G120A, -5.35.

Turning to A6U G58A U81A G110A A118C, the “polymerase ribozyme fitness (log ratio)” value is -2.44. For A41G A95G C114U, the “polymerase ribozyme fitness (log ratio)” value was -2.64.

Consider U87G G120A, for which the “polymerase ribozyme fitness (log ratio)” value worked out at 0.0419. Consider C11A C56A U81G A84U C101U C115A G120C U134G, for which the “polymerase ribozyme fitness (log ratio)” value is 0.0951.

Regarding G36U C56U C115G, the “polymerase ribozyme fitness (log ratio)” value is -3.57. Take U9G A18C C56G C72A: the “polymerase ribozyme fitness (log ratio)” value is -3.47. Then G71A G117A, with -1.44; and A6U G48A A91C C114A, with -2.36.

With C82G C85A A111G G113U U130G, the “polymerase ribozyme fitness (log ratio)” value is -4.27.

In the case of C12G C20U C76A, the “polymerase ribozyme fitness (log ratio)” value was -1.37.

Regarding G10A A90C G93C A111U, the “polymerase ribozyme fitness (log ratio)” value is -5.12. The result for C53U U59A A84U U126C reads -2.21; that for A24G G52A, -1.78. The result for A5U G36C reads -1.42; that for C4G C80U A83C C88U, -5.05; that for C8U G39C C79U G120U, 1.3.

In the case of A24G C62U C104A C115A G135C, the “polymerase ribozyme fitness (log ratio)” value is -4.17. On to C11A C40G G42A G71A, for which the “polymerase ribozyme fitness (log ratio)” value was -4.67. Then C8U G19C A43U C94A C115A G120U U133A, with -2.68.

For C72A C115A, the “polymerase ribozyme fitness (log ratio)” value was -0.416. The result for C4A C13U G63C U81A reads -2.72.

For A6C A26G U38G C53G, the “polymerase ribozyme fitness (log ratio)” value is -5.37. Then U38G G69A U112A, with -4.05. Take G58C A118G G120C: the “polymerase ribozyme fitness (log ratio)” value was -0.431.

Take A27C C62A: the “polymerase ribozyme fitness (log ratio)” value is -2.54.

With C56U C70U U78G U125G, the “polymerase ribozyme fitness (log ratio)” value is -1.77.

Regarding G63U G77U U78C, the “polymerase ribozyme fitness (log ratio)” value was -2.41. Then A111U G113C C115G, with -7.15; and C49A C82A G110A, with -1.04; and C53G C62A C70U U78G, with -2.63. For C56A A90U, the “polymerase ribozyme fitness (log ratio)” value was -1.48. The result for A6U A16C C40U C70U C85G reads -5.17; that for G71C C85A, -3.19; that for C20A G61A, -2.67. Then C49G G60U G110A, with -1.76; and A6C C11U C49A C101A, with -2.17; and C40U A90U, with -1.76. The result for A16U U32A A46U A103C A111G reads -5.71. Regarding G47A C82G U106A, the “polymerase ribozyme fitness (log ratio)” value is -1.42.

For G35U U67C U109A C115U, the “polymerase ribozyme fitness (log ratio)” value is -5.63. Then U14G C40U U59C A84G U129A, with -6.42; and A5U G19A A41U C94A C104U, with -3.89; and G93C A121U, with 1.21. Then C28U G52C C56G G120A, with -2.52; and G52C C123G, with 0.381. Regarding G35A U78G, the “polymerase ribozyme fitness (log ratio)” value is -4.14.

Consider C72U C73A A91U U131C U132C, for which the “polymerase ribozyme fitness (log ratio)” value is -2.72. The result for C12U C13U C97A C123U C124A reads -2.92; that for G10U A41U C72G C101U G110A, -4.92; that for C11U G17U G48A C114G, -6.05.

For G35A C64U U87G, the “polymerase ribozyme fitness (log ratio)” value is -4.86.

In the case of C56G G69C U87C G110A, the “polymerase ribozyme fitness (log ratio)” value was -5.42. Then C12U C13U G42U G51C U116G, with -7.04; and U14A A26U, with -5.1. The result for U7A C13G U32C U38G reads -1.31; that for G44A G45C, -3.88; that for A6C G44A G61U, -0.646. Take C12U A75G G128A: the “polymerase ribozyme fitness (log ratio)” value is -1.43. Regarding C53G C56A G60A A111G, the “polymerase ribozyme fitness (log ratio)” value was -0.505.

Turning to C94U G135U, the “polymerase ribozyme fitness (log ratio)” value was -1.34. The result for A46C C56A C85G reads -5.4; that for A27U G60U C82A U125G, -3.48.

With G47C C62G, the “polymerase ribozyme fitness (log ratio)” value is -4.1. Then C76U G135U, with -1.08. The result for C11U A105C A118G reads -2.52; that for A29G C73A C76A, -3.61. The result for C40U G48A A50C C72A reads 0.216. As to U7G C80A C124A, the “polymerase ribozyme fitness (log ratio)” value is -1.1.

For the variant A43U C99A C101G G110A, the “polymerase ribozyme fitness (log ratio)” value was -7.09. The result for U7A G61A C73A C104G U109C reads -6.61; that for G10C C73A, -1.86; that for A6U C12A G48U U106G, -1.45. Then G45U U54G G77C C123G, with 0.415; and G17A A91C G93C G120C U131C, with -1.37; and A2U C76A, with -3.43. Then G42A C53U, with -2.41; and C49A G57U G60U G113A, with -1.65; and U7G G69U, with 0.479. For C28A U54A G61U G110U, the “polymerase ribozyme fitness (log ratio)” value stood at 2.18.
